Experimental data taken from patent US20140348832A1 (Sanofi, published 2014).

How the values were obtained:
[1] = target: mouse cytotoxic T lymphocyte associated antigen-4 (CTLA-4) on activated T cells (mouse, UniProt P09793 36-223); assay: cell-based or functional assay
[2] = target: MHCII (pMHCII) on mouse antigen presenting cells; assay: cell-based or functional assay

B1: BsB, bispecific fusion protein CD80wa-LAG-3-Fc (mouse CD80w88a(aa1-235)-G9-Lag-3(aa25-260)-IgG2a(aa241-474)) (Fc fusion)
chain: VDEQLSKSVKDKVLLPCRYNSPHEDESEDRIYWQKHDKVVLSVIAGKLKVAPEYKNRTLYDNTTYSLIILGLVLSDRGTYSCVVQKKERGTYEVKHLALVKLSIKADFSTPNITESGNPSADTKRITCFASGGFPKPRFSWLENGRELPGINTTISQDPESELYTISSQLDFNTTRNHTIKCLIKYGDAHVSEDFTWGGGGGGGGGGPGKELPVVWAQEGAPVHLPCSLKSPNLDPNFLRRGGVIWQHQPDSGQPTPIPALDLHQGMPSPRQPAPGRYTVLSVAPGGLRSGRQPLHPHVQLEERGLQRGDFSLWLRPALRTDAGEYHATVRLPNRALSCSLRLRVGQASMIASPSGVLKLSDWVLLNCSFSRPDRPVSVHWFQGQNRVPVYNSPRHFLAETFLLLPQVSPLDSGTWGCVLTYRDGFNVSITYNLKVLGLEPVAPRGPTIKPCPPCKCPAPNLLGGPSVFIFPPKIKDVLMISLSPMVTCVVVDVSEDDPDVQISWFVNNVEVLTAQTQTHREDYNSTLRVVSALPIQHQDWMSGKEFKCKVNNKALPAPIERTISKPKGSVRAPQVYVLPPPEEEMTKKQVTLTCMVTDFMPEDIYVEWTNNGKTELNYKNTEPVLDSDGSYFMYSKLRVEKKNWVERNSYSCSVVHEGLHNHHTTKSFSRTPGK
[1]
  EC50 of BsB for inducing Tregs in vitro: ~0.1 µM
  potency of BsB at inducing the production of Tregs (EC50): > 0.1 µM
[2]
  EC50 of BsB for inducing Tregs in vitro: ~0.1 µM
  potency of BsB at inducing the production of Tregs (EC50): > 0.1 µM
